± gives the standard error. This sample holds only a part of the variants without activity.
B1: glmS ribozyme (parent)
chain: AUAAAAGCGCCAGAACUACAGAAAUGUAGUUGACGAGGAGGAGGUUUAUCGAAUUUUCGGCGGAUGCCUCCAAA

What was measured:
Conditions in all cases: with glucosamine-6-phosphate
glucosamine-6-phosphate [1] = variants of: B1; experiment: self-cleavage kobs at 160 uM GlcN6P; higher = faster cleavage; RNA array
In short: (§1)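 Tracking of barcoded ribozyme variants used a hybridised Cy3 probe at 37 °C, after in situ transcription by E. coli RNA polymerase on sequenced MiSeq chips. The flowed solution held 40 μM to 10 mM glucosamine-6-phosphate in HEPES/KCl/Mg(OAc)2 buffer, and imaging ran over ~14 h. kobs was taken from exponential decay fits of normalised per-tile medians, and kcat and KM from weighted Michaelis–Menten fits.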

glucosamine-6-phosphate [2] = variants of: B1; experiment: self-cleavage kobs at 2500 uM GlcN6P; higher = faster cleavage; RNA array
In short: as §1

glucosamine-6-phosphate [3] = variants of: B1; experiment: self-cleavage kobs at 640 uM GlcN6P; higher = faster cleavage; RNA array
In short: as §1

glucosamine-6-phosphate [4] = variants of: B1; experiment: self-cleavage kobs at 10000 uM GlcN6P; higher = faster cleavage; RNA array
In short: as §1

Variant | self-cleavage kobs at 160 uM GlcN6P (glucosamine-6-phosphate [1]) [s⁻¹] | self-cleavage kobs at 2500 uM GlcN6P (glucosamine-6-phosphate [2]) [s⁻¹] | self-cleavage kobs at 640 uM GlcN6P (glucosamine-6-phosphate [3]) [s⁻¹] | self-cleavage kobs at 10000 uM GlcN6P (glucosamine-6-phosphate [4]) [s⁻¹]
AUAAAAGGUCCAGAACUACAGAAAUGUACUUCACGAGGAGGAGGUUUAUCGCAUUUUCGGCGGAUGCCUCCAAA [C8G G9U G29C G32C A52C] | < 1e-05 | < 1e-05 | – | –
AUAAAAGCGCCAGAACUACAGAAAUGUAGUUGACGAGGCCGAGGUUUAUCGGAUUUUCGGCGGAUGCCUCCAAA [A39C G40C A52G] | < 1e-05 | – | < 1e-05 | –
AUAAAAGCGCCAGACCUACAGAAAUGUAGUUGACGAGGAGGAGGUUUAUCGAAUUUCCGGCCGAUGCCUCCAAA [A15C U57C G62C] | < 1e-05 | – | < 1e-05 | –
AUAAAAGCGCCAGAGCUACAGAAAUGUAGUUGACGAGGAGGAGGUUGAUCGAAUUUUCGGCGGAUGCGUCCAAA [A15G U47G C68G] | 0.000236 ± 8.5e-05 | 3e-05 ± 1.3e-05 | – | –
AUAAAAGCGCCAGAACUACAGAAAUGUAGUUGACGAGGAGGAGGUUUAUCCAGUUUUCGGCGGAUGCCUCCAAA [G51C A53G] | < 1e-05 | < 1e-05 | < 1e-05 | –
AUAAAAGCGCCAGAACUACAGAAAUGUAGCUGACGAGGAGGAGGUUUAUCGAAUUCUCGGCGGUUGCCUCCAAA [U30C U56C A64U] | < 1e-05 | – | < 1e-05 | –
AUAAAAGCGCCAAAACUACAGAAAUGUAGUUGACGAGGAGGAGGUUUAUCGAAUUUUGUGCGGAUGCCUCCAAA [G13A C58G G59U] | < 1e-05 | – | – | –
AUAAAAGCGUCAGAACUACAGAAAUGUAGUUGACGAGGAGGACGUUCAUCGCAUUUUCGGCGGACACCUGCAAA [C10U G43C U47C A52C U65C G66A C70G] | < 1e-05 | – | < 1e-05 | –
AUAAAAGCGCCAGAACUACAGAAAUGUAGUUGACGAGGAGGAGGUUUAUCGACUUUUCGGCGAAUGCCUCCAAA [A53C G63A] | < 1e-05 | – | < 1e-05 | < 1e-05
AUAAAAGCGCCAGAACUACAGAAAUGUAGUUGACGAGGAGGAGGUCUAUCGAAAUUUCGGUGGAUGCCUCCAAA [U46C U54A C61U] | < 1e-05 | < 1e-05 | – | –
AUAAAAGCUCCAGAACUACAGAAAUGUAGUUGACGAGAAGGAGGUUUAUCGAAUUUUCGGCGGAUGCCUCCAAA [G9U G38A] | < 1e-05 | – | < 1e-05 | –
AUAAAAGCGUCAGAACUACAGAAAUGUAGUAGACGAGGAGGAGGUUUAGCGAAUUUUCGGCUGAUGCUUCCAAA [C10U U31A U49G G62U C68U] | < 1e-05 | – | – | –
AUAAAAGCGCCAGAACUACAGAAAUGUAGUUGAAGAUGAGGAGGUUUGUCGAAUUUUCGGCGGAUGCCUCCAAA [C34A G37U A48G] | < 1e-05 | – | – | –
AUAAAAGCGCGAGAACUACAGAAAUGUAGUUGACGAGGAGGAGGUGUAUCGAAUUUUCGGCAGAUGCCUCCAAA [C11G U46G G62A] | < 1e-05 | < 1e-05 | < 1e-05 | < 1e-05
AUAAAAGUCCCAGAACUACAGAAAUGUAGUGGCCGAGGAGGAGGUUUAUCGAAUUUUCGGCGGAUGCCUCCAAA [C8U G9C U31G A33C] | < 1e-05 | < 1e-05 | < 1e-05 | –
AUAAAAGCGCCAGAACUACAGAAAUGUAGUUGACCAGGAGGAGGUUUAUCGAAUUUUCGGCGGAUGCCUUCAAA [G35C C70U] | < 1e-05 | – | < 1e-05 | < 1e-05
AUAAAAGCGCCAGAACUACAGAAAUGUAGUUGACGAGGAGGAGGUUAAUCGAAUUUUCGGCGGAUACCUCCAAA [U47A G66A] | 0.00046 ± 0.00012 | 0.00842 ± 0.0039 | 0.00249 ± 0.00067 | –
AUAAAAGCGCCGGAACUACAGAAAUGUAGUUGACCAGGAGGAGGUUUAUCGAAUUUUCGGCGGAUGCCUCCAAA [A12G G35C] | < 1e-05 | – | < 1e-05 | < 1e-05
AUAAAAGCGCCAGAACUACAGAAAUGUAGUUGACGAGGAGGAGGUUUAUCGAAUUUUCGGGGGUAGCUUCCAAA [C61G A64U U65A C68U] | < 1e-05 | – | < 1e-05 | –
AUAAAAGCGCUAGAACUACAGAAAUGUAGUUGACGAGGAGGAGGUUUAUCGAAUUUUCGGCGGAUGCCUGCAAA [C11U C70G] | 0.000313 ± 0.00014 | 0.000104 ± 8.7e-06 | 9e-05 ± 9.9e-06 | 6.56e-05 ± 5.5e-06
AUAAAAGCGGCAGAACUACAGAAAUGUAGUUGACGAGGAGGAGGUUUAUGGAAUUUUCGGCGGAUGUCUCCAAA [C10G C50G C67U] | 9.87e-05 ± 2.3e-05 | 0.000267 ± 5.1e-05 | – | –
AUAAAAGCGCCAGAACUACAGAAAUGUAGUUGACGAGGAGGCGGUUUAUCGAAUUUUAGGCGGAUGCCUCCAAA [A42C C58A] | < 1e-05 | – | < 1e-05 | < 1e-05
AUAAAAGAGCAAGAACUACAGAAAUGUAGUUGACGAGGAGGAGGUUUAUCGAAUUUUCGGCGGAUGCCUCCAAA [C8A C11A] | < 1e-05 | – | < 1e-05 | < 1e-05
AUAAAAGCGCCGGAACUACAGAAAUGUAGUUGACGAGGAGGAGGUUUAUCGUAUUUUCGGCGGAUUCCUCCAAA [A12G A52U G66U] | < 1e-05 | – | < 1e-05 | –
AUAAAAGCGCCAGAACUACAGAAAUGUAGUUGACGUGGAGGAGGUUUAUCGAAUUUCCGGCGGAUGCCUCCAAA [A36U U57C] | < 1e-05 | – | – | < 1e-05
AUAAAAGCGCCAGAACUACAGAAAUGUAGUUGAGGAAGAGGAGGUUUAUCGAAUUUUCGGCGGAUGCCUCCAAA [C34G G37A] | < 1e-05 | – | < 1e-05 | –
AUAAAAGCGCCAGAACUACAGAAAUGUAGUUGACGACGAGGAGGUUUAUCGAAUUUUCGGCGGACGCCUCCAAA [G37C U65C] | < 1e-05 | < 1e-05 | < 1e-05 | –
AUAAAAGCGCCAGAACUACAGAAAUGUAGUGAACGAGGAGGAGGUUUAUCGAAUUUUCGGCGGAUGCCUCCAAA [U31G G32A] | 2.88e-05 ± 1.4e-05 | 0.000689 ± 0.00016 | 0.000366 ± 7.2e-05 | 0.00185 ± 0.00031
AUAAAAGCGCCAGAACUACAGAAAUGUAGUUGACGAGGAGGCGGUUUAUCGAAUUUUCGGCGGAUGCCACCAAA [A42C U69A] | 5.29e-05 ± 2.2e-05 | 0.000182 ± 4.1e-05 | 0.000125 ± 3.8e-05 | 0.0008 ± 0.00018
AUAAAAGCGCCAGAACUACAGAAAUGUAGUUGACGAGGAGGCGGUUUGUCGAAUAUUCGGCGGAUGCCUCCAAA [A42C A48G U55A] | < 1e-05 | – | < 1e-05 | –
